Test results as given in PMC8313134, “Jasmonate‐ and abscisic acid‐activated AaGSW1‐AaTCP15/AaORA transcriptional cascade promotes artemisinin biosynthesis in Artemisia annua”.
Numbering of substitutions follows the chain as printed.

Assays:
Conditions in all cases: protein: recombinant; tags: His-TF (trigger factor), pCold-TF; chain copies: 2; blunt
AaTCP15 [1] = molecular target: T1, AaTCP15 (Artemisia annua, UniProt A0A8E3YC86 1-384); assay: EMSA; cold Aq competitor reduces shift; not given; EMSA as described in Ma et al. 2018; cold competitor 10x, 20x, 40x
AaTCP15 [2] = molecular target: T1, AaTCP15; assay: EMSA; cold Dq competitor reduces shift; not given; EMSA as described in Ma et al. 2018; cold competitor 10x, 20x, 40x
AaTCP15 [3] = molecular target: T1, AaTCP15; assay: EMSA; not given; EMSA as described in Ma et al. 2018; cold competitor 10x, 20x, 40x

T1 sequence (A0A8E3YC86 entry or part of it): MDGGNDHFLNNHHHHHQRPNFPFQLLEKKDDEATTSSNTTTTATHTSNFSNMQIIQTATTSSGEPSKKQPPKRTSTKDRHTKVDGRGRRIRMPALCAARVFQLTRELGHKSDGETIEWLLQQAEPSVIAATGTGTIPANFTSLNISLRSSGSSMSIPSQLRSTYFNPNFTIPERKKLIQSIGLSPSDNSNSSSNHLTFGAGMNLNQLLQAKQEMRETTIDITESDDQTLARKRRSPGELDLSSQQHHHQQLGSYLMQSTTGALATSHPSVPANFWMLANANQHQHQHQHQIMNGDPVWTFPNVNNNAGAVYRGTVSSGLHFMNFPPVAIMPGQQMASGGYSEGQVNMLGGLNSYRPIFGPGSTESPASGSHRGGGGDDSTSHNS

B1: Aq probe (ALDH1 promoter) (dsDNA)
DNA 1: GGTTGGTTGCATTATCTGGCCCCACCGTAAACAATCAAATGC
DNA 2: GCATTTGATTGTTTACGGTGGGGCCAGATAATGCAACCAACC
**Q.** Does B1 bind (AaTCP15 [1])?
**A.** binds

B2: Dq probe (DBR2 promoter) (dsDNA)
DNA 1: GTCGCTAAACTTGCCACGGTCCCACTTTTTCAACTCTTATTA
DNA 2: TAATAAGAGTTGAAAAAGTGGGACCGTGGCAAGTTTAGCGAC
**Q.** Does B2 bind (AaTCP15 [2])?
**A.** binds

B3: Dq mutated probe (dsDNA)
DNA 1: B2 DNA 1 with C21A, C22A, C23A, A24C, C25A
DNA 2: B2 DNA 2 with G18T, T19G, G20T, G21T, G22T
**Q.** Does B3 bind (AaTCP15 [3])?
**A.** no binding
